The text below walks through data of patent US20240209088A1 (NMI NATURWISSENSCHAFTLICHES UND MEDIZINISCHES INSTITUT AN …, published 2024).

The target in assay [1] is T1, full-length human CD4 on cells (human, UniProt P01730 26-458).
T1 construct: whole, on cells; Stably expressed (CHO-hCD4, HEK293-hCD4) or endogenous (PBMCs, human CD4+ cells from blood, HPB-ALL, T cell lines); also called hCD4; cell-resident hCD4
Briefly: flow cytometry on cells expressing hCD4. Background: Flow cytometry measures light scatter and fluorescence of single cells or particles in a stream.
Description: (§1) (E) EC₅₀ determination by flow cytometry.
(§2) For each staining condition 200,000 cells were incubated with suitable dilution series of CD4 nanobodies at 4° C. for 30 min. Cells were washed two times and for detection Cy5 AffiniPure Goat Anti-Alpaca IgG, VHH domain (Jackson ImmunoResearch) was applied for 15 min. […] Final data analysis was performed via FloJo10® software.

Assay [2] deals with T1, full-length human CD4 on cells. Briefly: flow cytometry, percentage of positively stained hCD4-expressing cells against Nb concentration, four-parametric sigmoidal model.
Assay [3] addresses T2, recombinant extracellular portion of human CD4 (domains D1-4) (human, UniProt P01730 26-396, for BLI biotinylated with 3-fold molar excess of biotin-N-hydroxysuccinimide ester; not biotinylated in HDX-MS).
T2 construct: extracellular domain; also called recombinant hCD4; extracellular domain of hCD4
Description: biolayer interferometry, biotinylated hCD4 immobilized on streptavidin biosensors. For orientation: BLI is a label-free optical method that tracks binding on a fibre tip over time.
Description: (§3) (D) For biolayer interferometry-based affinity measurements, biotinylated hCD4 was immobilized on streptavidin biosensors.
(§4) To determine the binding affinity of purified Nbs to recombinant hCD4, biolayer interferometry (BLItz, ForteBio) was performed. First, CD4 was biotinylated by 3-fold molar excess of biotin-N-hydroxysuccinimide ester. CD4 was then immobilized at single-use high-precision streptavidin biosensors (SAX) according to manufacturer's protocols. […] As a reference run, PBS was used instead of Nb in the association step. […] Recorded sensograms were analyzed using the BLItzPro software and dissociation constants (KD) were calculated based on global fits.

Assay [4] concerns the target T1, full-length human CD4 on cells. Briefly: flow cytometry on HEK293-hCD4 cells, detection with anti-VHH Cy5 antibody.
Description: For each staining condition 200,000 cells were incubated with suitable dilution series of CD4 nanobodies at 4° C. for 30 min. Cells were washed two times and for detection Cy5 AffiniPure Goat Anti-Alpaca IgG, VHH domain (Jackson ImmunoResearch) was applied for 15 min. […] After two washing steps, samples were resuspended in 200 μl FACS buffer and analyzed with a BD FACSMelody Cell Sorter. Final data analysis was performed via FloJo10® software.
In addition, corresponding EC50 values were determined with full-length plasma membrane-located hCD4 on HEK293-hCD4 cells by flow cytometry.
The target of assay [5] is T2, recombinant extracellular portion of …. Briefly: BLI, biotinylated extracellular domain of hCD4 on streptavidin sensor, serial dilutions of Nb.
Description: as §4
(§5) To quantitatively assess affinities, biolayer interferometry (BLI) measuring serial dilutions of Nbs were performed on the biotinylated extracellular domain of hCD4 immobilized at the sensor tip.
Assay [6] has the same target. Description: BLI (affinity constants predetermined by BLI analysis).
Description: as §4
For assay [7] the target is unchanged. Description: biolayer interferometry, biotinylated hCD4 immobilized on streptavidin biosensors; box in the panel prints [CD4_Nb1]: 15.625-125 nM.
Description: as §4
The target of assay [8] is T1, full-length human CD4 on cells. Briefly: flow cytometry, percentage of positively stained hCD4-expressing cells against Nb concentration, four-parametric sigmoidal model; the curve rises only to about 3 % at the highest concentration near 10^-4.5 M.
Assay [9] concerns the target T2, recombinant extracellular portion of …. Description: biolayer interferometry on human CD4; the sheet prints Conc: 0.625 - 5 nM, four sensorgrams up to about 0.17 nm.
The target is the same in assay [10]. Description: BLI.
Assay [11] concerns the target T1, full-length human CD4 on cells. Description: flow cytometry on HEK293-hCD4 cells, detection with anti-VHH Cy5 antibody; flow cytometry, full-length hCD4 on HEK293-hCD4 cells.
Assay [12] shares this target. Description: flow cytometry, percentage of positively stained hCD4-expressing cells against Nb concentration; the subscript is redrawn as 56, EC50 by the legend paragraph 99.
Description: as §1, §2
In assay [13] the target is T2, recombinant extracellular portion of …. Description: BLI, biotinylated extracellular domain of hCD4 on streptavidin sensor, serial dilutions of Nb; BLI on biotinylated extracellular domain of hCD4 at the sensor tip.
Description: as §4, §5
Assay [14] shares this target. Briefly: biolayer interferometry, biotinylated hCD4 immobilized on streptavidin biosensors, four Nb concentrations; the subscript is redrawn as O, KD by the legend paragraph 99.
Description: as §3, §4
Assay [15] addresses T3, murine CD4 on mouse CD4+ cells (mouse, UniProt P06332 27-457).
T3 construct: whole, on cells; also called murine CD4+ lymphocytes
T3 sequence (looked up): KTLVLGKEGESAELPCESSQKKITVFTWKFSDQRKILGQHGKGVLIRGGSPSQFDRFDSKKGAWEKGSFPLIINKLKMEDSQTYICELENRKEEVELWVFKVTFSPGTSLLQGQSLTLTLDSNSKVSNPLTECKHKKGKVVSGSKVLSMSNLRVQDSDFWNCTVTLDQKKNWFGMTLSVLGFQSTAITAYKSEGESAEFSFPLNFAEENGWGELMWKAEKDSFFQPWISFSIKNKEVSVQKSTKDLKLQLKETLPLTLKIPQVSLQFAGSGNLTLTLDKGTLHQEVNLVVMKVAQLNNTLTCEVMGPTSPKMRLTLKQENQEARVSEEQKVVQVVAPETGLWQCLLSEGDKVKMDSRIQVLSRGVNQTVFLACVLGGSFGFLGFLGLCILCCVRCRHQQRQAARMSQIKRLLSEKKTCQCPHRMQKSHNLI
Briefly: flow cytometry of mouse CD4+ cells from spleen and lymph nodes.

In assay [16] the target is T4, hCD4 domain-deletion mutant lacking domains D1 and D2 (CD4_ΔD1ΔD2) (human, UniProt P01730 26-458).
T4 construct: whole, on cells; Transiently expressed in CHO wt cells; also called pcDNA3.1_CD4_ΔD1ΔD2_IRES-eGFP
Description: live-cell immunofluorescence of CHO cells transiently expressing the domain-deletion mutant, CF568-labeled Nb.

Assay [17] concerns the target T5, hCD4 domain-deletion mutant lacking domain D1 (CD4_ΔD1) (human, UniProt P01730 26-458).
T5 construct: whole, on cells; Transiently expressed in CHO wt cells; also called pcDNA3.1_CD4_ΔD1_IRES-eGFP
Described as above.

Assay [18] concerns the target T1, full-length human CD4 on cells. Briefly: in vitro radioimmunoassay on HPB-ALL cells (data not shown).
For assay [19] the target is unchanged. Briefly: live-cell immunofluorescence of CHO-hCD4 cells, unlabeled Nb detected with anti-VHH Cy5 secondary antibody.

A word on the EC50: it is the concentration needed to bring the measured effect to its halfway point. A higher EC50 goes with weaker potency. As a reminder, the koff is the rate constant with which the complex falls apart. By kon is commonly meant the second-order rate constant of association. In general, Kd refers to the free concentration of one partner at which half of the binding sites on the other are occupied at equilibrium, for simple one-to-one binding.

B1: CD4-Nb2 (VHH)
VHH: EVQLVESGGGSVQPGGSLRLSCGASGFDVDYYAIGWFRQAPGKEREGVSCIASSDGSTYYADSVKGRFTISRDNAKNTVYLQMNSLKPEDTAVYYCAADATCPYYCSGSVCYLETGMDYWGEGTLVTVSS
notes: Unlabeled, expressed in E. coli
Consider B1, for which the EC50 was 0.73 nM in assay [1], 0.73 nM in assay [2] and approximately 0.7 nM in assay [4]. Besides, in assay [3], the dissociation rate constant (koff) is 0.000795 s⁻¹. In [3], the association rate constant (kon) came to 122000 M⁻¹ s⁻¹. Moreover, the dissociation constant (Kd) in assay [5] was approximately 7 nM; in assay [6], 6.5 nM; in assay [7] it was 6.53 nM.

B2: CD4-Nb4 (VHH)
VHH: EVQLQESGGALAQPGGSLRLSCAVSGFTFGTYGMGWLRQAPGKGREFVAAINWIHGGEIYADSVKGRFTISKDNAKNTLYLQMDSLKPEDTAVYYCAARSGTSLYTGVDEYQYWGQGTQVTVSS
notes: as for B1
Regarding B2, the EC50 in [8] and in assay [1] was 7360 nM throughout. Also, the off-rate (koff) in assay [3] is 0.016 s⁻¹. In addition, the on-rate (kon) in [3] was 118000 M⁻¹ s⁻¹. Moreover, the Kd in assay [5] is 135 nM.

B3: mutant CD4-Nb1 (all lysine residues replaced with arginine residues) (VHH)
VHH: EVQLVESGGGLVQPGGSLRLSCAASGFTFSRLAMSWHREPPGRGREWLADIDSSGDTTDYLASVRGRFTISRDNARNTLYLQMDSLRSEDTGVYYCASREDPPGYWGQGTQVTVSS
notes: Expressed in bacteria; also called mutant nanobody; mutant version of the nanobody
Take B3: the Kd in [9] is 1 nM; in [10] it was approximately 1 nM.

B4: CD4-Nb1 (VHH)
VHH: EVQLVESGGGLVQPGGSLRLSCAASGFTFSKLAMSWHREPPGKGREWLADIDSSGDTTDYLASVKGRFTISRDNAKNTLYLQMDSLKSEDTGVYYCASREDPPGYWGQGTQVTVSS
notes: Unlabeled, expressed in E. coli; also called non-mutated CD4-Nb1
As for B4, the results for the half-maximal effective concentration (EC50) in assay [11], in assay [12] and in assay [1] were approximately 0.7 nM, 0.74 nM and 0.74 nM, respectively. Also, the results for the Kd in assay [13], in [14] and in assay [6] were approximately 5 nM, 5.09 nM and 5.1 nM, respectively. Also, in [3], the dissociation rate constant (koff) came to 0.000613 s⁻¹. Besides, in [3], the kon was found to be 121000 M⁻¹ s⁻¹.

B5: CD4-Nb1-Cy5.5 (VHH)
VHH: EVQLVESGGGLVQPGGSLRLSCAASGFTFSKLAMSWHREPPGKGREWLADIDSSGDTTDYLASVKGRFTISRDNAKNTLYLQMDSLKSEDTGVYYCASREDPPGYWGQGTQVTVSS
modifications: C-terminus sortase-coupled to H-Gly-Gly-Gly-propyl-azide, then click-labeled with DBCO-Cy5.5
notes: also called hCD4-Nb1-Cy5.5; Cy5.5-labeled CD4-Nb1
In the case of B5, in assay [15], the binding result is on record as “no binding”.

B6: CD4-Nb1 sortase-coupled to the fluorescent dye CF568 (VHH)
VHH: EVQLVESGGGLVQPGGSLRLSCAASGFTFSKLAMSWHREPPGKGREWLADIDSSGDTTDYLASVKGRFTISRDNAKNTLYLQMDSLKSEDTGVYYCASREDPPGYWGQGTQVTVSS
modifications: C-terminus sortase-coupled to the CF568-coupled peptide H-Gly-Gly-Gly-Doa-Lys-NH2 (labeling ratio 1:1)
notes: also called CF568-labeled CD4-Nb1; CD4-Nbs-CF568
Consider B6, for which the binding result in assay [16] and in assay [17] was “no binding (tested: not printed on the sheet)” throughout.

B7: ^64Cu-CD4-Nb1 (VHH)
VHH: EVQLVESGGGLVQPGGSLRLSCAASGFTFSKLAMSWHREPPGKGREWLADIDSSGDTTDYLASVKGRFTISRDNAKNTLYLQMDSLKSEDTGVYYCASREDPPGYWGQGTQVTVSS
modifications: azide-coupled C-terminus reacted with BCN-NODAGA and radiolabeled with 64Cu
notes: also called ^64Cu-hCD4-Nb1
In the case of B7, the “fold over the non-specific binding to CD4-negative DHL cells or of the 64Cu-GFP-Nb control” value in [18] is approximately 30 times.

B8: CD4-Nb5 (VHH)
VHH: EVQLQESGGGLVQAGGSLRLSCKVSGRTFGTYAMGWFRQAPGKEREFVAVISWIKGNTYVADSVLGRFTISRDNARNWLHLQMYSLKPEDTATYYCAASSTVTLPTTLDPYTYWGQGTPVTVSS
notes: Unlabeled; excluded from further analyses after the live-cell staining
With B8, the binding result in [19] is “no binding (tested: not printed on the sheet)”.

B9: CD4-Nb3 (VHH)
VHH: HVQLVESGGGLVQPGGSLRLSCAVSGFALEYYAIGWFRQAPGKERERVACMSASGGVINYSESVKGRFTISRDNAKNTVYLQMNTLKPEDTAVYYCAAEKAYYGSSWAECYLMMDYWGKGTLVTVSS
notes: as for B1
Regarding B9, the 50% effective concentration (EC50) in assay [1] and in assay [2] was 533 nM throughout. For the same molecule, in assay [3], the koff is 0.00618 s⁻¹. Also, the association rate constant (kon) in [3] was found to be 82000 M⁻¹ s⁻¹. Further, the Kd in assay [5] stood at 75 nM; in [6], 75.3 nM.
